Data as given in patent publication US20230218715A1.

Legend:
Test in all cases: cell-based or functional assay
[1] = target: S protein of HCoV strain 229E (HCoV 229E) (UniProt P15423)
[2] = target: S protein of HCoV strain NL63 (HCoV NL63) (UniProt Q6Q1S2)
[3] = target: S protein of HCoV strain OC43 (HCoV OC43) (UniProt P36334)
[4] = target: S protein of MERS-CoV strain EMC/2012 (MERS-CoV strain EMC/2012) (UniProt K9N5Q8)
[5] = target: S protein of SARS-CoV strain CuHK (SARS-CoV strain CuHK)
[6] = target: S protein of SARS-CoV strain Frank (SARS-CoV strain Frank)
[7] = target: S protein of SARS-CoV strain Tor-II (SARS-CoV strain Tor-II) (UniProt P59594)
[8] = target: S protein of SARS-CoV strain Urbani (SARS-CoV strain Urbani)
[9] = target: S protein of SARS-CoV-2 strain USA-WA1/2020 (SARS-CoV-2 strain USA-WA1/2020) (UniProt P0DTC2)

Sequence of UniProt P15423 (P15423 16-1173): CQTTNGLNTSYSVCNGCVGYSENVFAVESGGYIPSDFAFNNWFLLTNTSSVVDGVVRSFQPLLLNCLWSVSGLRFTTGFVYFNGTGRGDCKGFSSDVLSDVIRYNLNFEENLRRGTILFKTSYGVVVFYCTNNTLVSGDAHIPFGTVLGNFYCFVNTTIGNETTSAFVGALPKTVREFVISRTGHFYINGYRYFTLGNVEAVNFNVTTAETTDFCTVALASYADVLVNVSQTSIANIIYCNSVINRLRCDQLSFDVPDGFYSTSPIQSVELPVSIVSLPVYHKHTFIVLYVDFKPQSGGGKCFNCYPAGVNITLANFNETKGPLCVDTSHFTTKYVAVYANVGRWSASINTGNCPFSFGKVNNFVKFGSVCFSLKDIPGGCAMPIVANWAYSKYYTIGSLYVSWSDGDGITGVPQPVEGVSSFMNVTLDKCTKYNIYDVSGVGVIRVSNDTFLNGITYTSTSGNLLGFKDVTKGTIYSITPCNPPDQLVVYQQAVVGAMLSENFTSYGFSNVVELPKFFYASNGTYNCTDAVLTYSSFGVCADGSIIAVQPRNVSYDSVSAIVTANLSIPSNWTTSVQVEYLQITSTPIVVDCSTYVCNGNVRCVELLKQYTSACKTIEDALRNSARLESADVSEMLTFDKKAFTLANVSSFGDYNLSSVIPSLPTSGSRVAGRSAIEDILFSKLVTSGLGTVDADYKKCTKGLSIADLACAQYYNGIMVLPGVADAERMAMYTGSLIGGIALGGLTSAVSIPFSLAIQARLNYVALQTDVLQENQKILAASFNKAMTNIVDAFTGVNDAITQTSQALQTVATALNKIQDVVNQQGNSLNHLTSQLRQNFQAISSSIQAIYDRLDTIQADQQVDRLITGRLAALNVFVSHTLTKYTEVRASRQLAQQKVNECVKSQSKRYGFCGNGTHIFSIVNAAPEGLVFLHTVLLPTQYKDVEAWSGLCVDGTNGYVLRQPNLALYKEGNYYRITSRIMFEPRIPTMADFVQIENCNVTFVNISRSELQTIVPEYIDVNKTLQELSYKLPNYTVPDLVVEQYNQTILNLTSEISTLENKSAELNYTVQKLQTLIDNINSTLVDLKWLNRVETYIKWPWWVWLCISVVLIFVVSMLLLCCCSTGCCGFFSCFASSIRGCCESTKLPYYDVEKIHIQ
Sequence of UniProt P36334 (P36334 14-1353): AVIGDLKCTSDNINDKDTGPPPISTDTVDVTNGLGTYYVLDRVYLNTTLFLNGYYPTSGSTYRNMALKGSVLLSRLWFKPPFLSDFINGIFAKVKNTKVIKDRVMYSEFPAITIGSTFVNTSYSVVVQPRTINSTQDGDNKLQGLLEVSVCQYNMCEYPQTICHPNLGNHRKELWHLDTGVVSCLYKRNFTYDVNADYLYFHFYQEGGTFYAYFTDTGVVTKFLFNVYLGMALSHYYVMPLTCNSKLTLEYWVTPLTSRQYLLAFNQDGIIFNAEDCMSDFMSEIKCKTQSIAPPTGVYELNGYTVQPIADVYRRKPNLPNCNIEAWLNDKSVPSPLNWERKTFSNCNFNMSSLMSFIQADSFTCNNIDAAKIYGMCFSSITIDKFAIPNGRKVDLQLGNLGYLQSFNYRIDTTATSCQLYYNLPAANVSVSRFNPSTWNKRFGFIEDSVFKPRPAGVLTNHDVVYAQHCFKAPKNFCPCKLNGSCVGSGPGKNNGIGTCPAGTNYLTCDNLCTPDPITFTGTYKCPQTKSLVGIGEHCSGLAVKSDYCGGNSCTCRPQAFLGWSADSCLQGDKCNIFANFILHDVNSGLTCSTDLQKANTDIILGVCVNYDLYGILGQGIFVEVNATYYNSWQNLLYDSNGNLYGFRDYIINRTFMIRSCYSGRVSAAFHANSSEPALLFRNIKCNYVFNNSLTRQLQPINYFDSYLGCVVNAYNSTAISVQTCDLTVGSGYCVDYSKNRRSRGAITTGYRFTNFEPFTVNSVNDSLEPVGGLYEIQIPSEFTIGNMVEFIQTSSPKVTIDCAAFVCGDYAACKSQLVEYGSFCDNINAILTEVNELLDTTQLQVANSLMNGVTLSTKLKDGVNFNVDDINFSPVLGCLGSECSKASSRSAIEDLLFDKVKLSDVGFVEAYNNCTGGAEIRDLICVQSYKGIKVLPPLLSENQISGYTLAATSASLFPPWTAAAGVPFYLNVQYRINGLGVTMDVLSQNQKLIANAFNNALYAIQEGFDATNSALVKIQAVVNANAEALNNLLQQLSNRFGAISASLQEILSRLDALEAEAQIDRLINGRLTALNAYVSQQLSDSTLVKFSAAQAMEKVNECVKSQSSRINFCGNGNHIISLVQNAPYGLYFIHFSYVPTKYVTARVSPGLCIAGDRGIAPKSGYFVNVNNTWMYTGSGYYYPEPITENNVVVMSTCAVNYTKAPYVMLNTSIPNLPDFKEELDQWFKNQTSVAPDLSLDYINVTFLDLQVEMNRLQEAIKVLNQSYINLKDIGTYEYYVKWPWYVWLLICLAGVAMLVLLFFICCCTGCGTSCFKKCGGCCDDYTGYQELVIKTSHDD
Sequence of UniProt Q6Q1S2 (Q6Q1S2 19-1356): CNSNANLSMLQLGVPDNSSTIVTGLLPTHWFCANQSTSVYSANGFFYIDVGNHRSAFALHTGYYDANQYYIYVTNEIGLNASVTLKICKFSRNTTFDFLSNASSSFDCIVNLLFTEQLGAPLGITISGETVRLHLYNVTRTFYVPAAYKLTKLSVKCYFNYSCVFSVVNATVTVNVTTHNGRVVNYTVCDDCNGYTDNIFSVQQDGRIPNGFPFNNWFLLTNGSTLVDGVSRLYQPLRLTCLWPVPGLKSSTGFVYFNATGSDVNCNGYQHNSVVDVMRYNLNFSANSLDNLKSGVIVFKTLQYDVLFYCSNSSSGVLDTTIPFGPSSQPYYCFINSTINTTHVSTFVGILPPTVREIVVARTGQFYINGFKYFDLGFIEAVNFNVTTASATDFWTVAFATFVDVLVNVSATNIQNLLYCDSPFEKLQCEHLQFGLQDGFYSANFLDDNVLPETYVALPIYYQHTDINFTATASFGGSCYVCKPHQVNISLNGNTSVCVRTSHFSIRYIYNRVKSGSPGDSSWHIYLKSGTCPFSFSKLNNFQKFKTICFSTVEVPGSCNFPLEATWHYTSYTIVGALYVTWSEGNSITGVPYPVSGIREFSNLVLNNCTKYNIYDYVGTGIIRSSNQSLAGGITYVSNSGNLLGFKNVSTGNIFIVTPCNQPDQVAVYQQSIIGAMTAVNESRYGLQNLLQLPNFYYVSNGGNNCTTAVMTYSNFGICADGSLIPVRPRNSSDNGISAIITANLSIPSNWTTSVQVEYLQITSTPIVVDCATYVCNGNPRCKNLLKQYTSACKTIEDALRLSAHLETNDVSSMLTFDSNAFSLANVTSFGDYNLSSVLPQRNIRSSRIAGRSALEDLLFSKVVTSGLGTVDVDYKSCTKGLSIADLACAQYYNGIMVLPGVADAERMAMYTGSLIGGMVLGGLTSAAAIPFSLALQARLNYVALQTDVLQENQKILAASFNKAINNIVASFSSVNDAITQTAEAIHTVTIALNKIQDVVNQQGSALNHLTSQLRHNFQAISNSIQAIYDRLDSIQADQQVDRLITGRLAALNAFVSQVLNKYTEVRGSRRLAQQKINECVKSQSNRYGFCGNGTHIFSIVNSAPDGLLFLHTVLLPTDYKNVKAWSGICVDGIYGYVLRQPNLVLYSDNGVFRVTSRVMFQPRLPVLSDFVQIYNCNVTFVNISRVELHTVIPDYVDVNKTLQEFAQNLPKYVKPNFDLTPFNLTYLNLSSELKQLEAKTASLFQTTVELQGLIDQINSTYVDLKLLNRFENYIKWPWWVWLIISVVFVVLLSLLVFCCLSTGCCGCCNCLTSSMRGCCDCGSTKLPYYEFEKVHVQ

## wild-type griffithsin
[1]
  Antiviral activity EC50: 0.18 µg/mL
[2]
  Antiviral activity EC50: < 0.0032 µg/mL
[3]
  Antiviral activity EC50: 0.16 µg/mL
[4]
  Antiviral activity EC50: < 0.124 µg/mL
[5]
  Antiviral activity EC50: 0.78 µg/mL
[6]
  Antiviral activity EC50: 1.19 µg/mL
[7]
  Antiviral activity EC50: 0.61 µg/mL
[8]
  Antiviral activity EC50: 0.61 µg/mL
[9]
  Antiviral activity EC50: < 0.1 µg/mL
